Source: patent US20250277199, “NOVEL CRISPR-CAS NUCLEASES FROM METAGENOMES” (Brain Biotech AG, published 2025)

Biological target: T1, BMC14 (uncultured bacterium (metagenome))
T1 chain: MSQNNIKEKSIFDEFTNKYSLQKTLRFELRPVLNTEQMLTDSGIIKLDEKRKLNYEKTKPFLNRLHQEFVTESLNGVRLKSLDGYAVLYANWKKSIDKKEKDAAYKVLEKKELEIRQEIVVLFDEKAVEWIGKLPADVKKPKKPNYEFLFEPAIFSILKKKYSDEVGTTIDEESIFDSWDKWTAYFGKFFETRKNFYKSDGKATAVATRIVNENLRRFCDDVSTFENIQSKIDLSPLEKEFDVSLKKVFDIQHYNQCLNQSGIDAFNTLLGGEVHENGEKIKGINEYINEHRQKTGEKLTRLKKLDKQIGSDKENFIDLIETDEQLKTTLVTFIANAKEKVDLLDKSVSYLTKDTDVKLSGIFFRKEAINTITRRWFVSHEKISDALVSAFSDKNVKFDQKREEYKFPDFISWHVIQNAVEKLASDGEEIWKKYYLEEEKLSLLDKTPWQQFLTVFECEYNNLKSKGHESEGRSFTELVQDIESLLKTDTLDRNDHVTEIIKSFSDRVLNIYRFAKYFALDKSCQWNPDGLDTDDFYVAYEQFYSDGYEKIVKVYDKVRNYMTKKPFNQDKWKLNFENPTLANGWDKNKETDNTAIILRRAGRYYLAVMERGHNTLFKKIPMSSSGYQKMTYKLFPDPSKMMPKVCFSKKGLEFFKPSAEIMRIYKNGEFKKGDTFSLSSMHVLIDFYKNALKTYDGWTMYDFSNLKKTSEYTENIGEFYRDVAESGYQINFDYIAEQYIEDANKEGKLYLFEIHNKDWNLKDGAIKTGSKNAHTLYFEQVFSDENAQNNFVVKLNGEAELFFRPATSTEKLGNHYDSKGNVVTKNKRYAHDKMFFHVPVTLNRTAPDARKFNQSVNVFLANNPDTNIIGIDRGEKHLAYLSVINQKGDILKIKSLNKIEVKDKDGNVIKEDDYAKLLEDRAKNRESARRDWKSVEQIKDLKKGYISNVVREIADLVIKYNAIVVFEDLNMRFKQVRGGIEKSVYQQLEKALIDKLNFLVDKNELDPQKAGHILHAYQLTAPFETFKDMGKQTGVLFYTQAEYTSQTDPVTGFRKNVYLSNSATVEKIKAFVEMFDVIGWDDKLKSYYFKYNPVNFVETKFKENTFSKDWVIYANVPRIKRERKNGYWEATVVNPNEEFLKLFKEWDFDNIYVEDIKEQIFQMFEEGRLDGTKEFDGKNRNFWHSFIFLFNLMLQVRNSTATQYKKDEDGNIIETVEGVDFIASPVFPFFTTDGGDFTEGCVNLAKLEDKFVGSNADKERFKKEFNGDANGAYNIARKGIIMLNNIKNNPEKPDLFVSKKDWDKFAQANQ
Experiment: cell_activity; PAM not stated; E. coli depletion, 30 C
In short: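 E. coli carrying arabinose-induced (0.2%) BMC nuclease, grown at 30° C., made electrocompetent and electroporated with 50-100 ng plasmid carrying gRNA against malQ. Transformants plated on selective M9-glucose agar with kanamycin/ampicillin (± nourseothricin), and growth scored after 48 h at 30° C.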

B1: malQ gRNA (BMC stem-loop + 24 nt spacer) ; malQ protospacer (ssRNA ; dsDNA)
RNA: GAUUUCUACUAUUGUAGAUGUGGCGGUACGUUGAUGCAUCGCG
DNA 1: GTGGCGGTACGTTGATGCATCGCG
DNA 2: CGCGATGCATCAACGTACCGCCAC
In the case of B1, the activity is reported as over 99.9 % colony reduction.
